Measurements as given in patent US20110190200A1 (INDIANA UNIVERSITY RESEARCH AND TECHNOLOGY, published 2011).
Numbered stars: 1 amine (or outer) side, 2 acyl side, 3 side chain; on linkers, the order of the positions; unused ones are H or OH. Square brackets hold non-standard residues; d marks the D form. Side chains are listed from the residue outwards. Ends that are not written are not given here. * marks the point of attachment. γGlu = O=C(O)[C@H](CCC(=O)[*:2])N[*:1]; Palmitoyl = CCCCCCCCCCCCCCCC(=O)*; Met(O) = CS(=O)CC[C@H](N)C(=O)O; Myristoyl = CCCCCCCCCCCCCC(=O)*; Nle = CCCC[C@H](N)C(=O)O; Orn = NCCC[C@H](N)C(=O)O; Dab = NCC[C@H](N)C(=O)O; Dap = NC[C@H](N)C(=O)O; Aib = CC(C)(N)C(=O)O; Carbamoyl = NC(=O)*; Ahx = NCCCCCC(=O)O; βAla = NCCC(=O)O; Acm = CC(=O)NC*

B1: Peptide 84 (Table 10) (peptide)
peptide: H[Aib]QGTFTSDK([βAla-βAla-Palmitoyl])SKYLD[Aib]RRAQDFVQWLMNT-NH2
modifications: N-terminus assumed
SMILES: CCCCCCCCCCCCCCCC(=O)NCCC(=O)NCCC(=O)NCCCC[C@H](NC(=O)[C@H](CC(=O)O)NC(=O)[C@H](CO)NC(=O)[C@@H](NC(=O)[C@H](Cc1ccccc1)NC(=O)[C@@H](NC(=O)CNC(=O)[C@H](CCC(N)=O)NC(=O)C(C)(C)NC(=O)[C@@H](N)Cc1c[nH]cn1)[C@@H](C)O)[C@@H](C)O)C(=O)N[C@@H](CO)C(=O)N[C@@H](CCCCN)C(=O)N[C@@H](Cc1ccc(O)cc1)C(=O)N[C@@H](CC(C)C)C(=O)N[C@@H](CC(=O)O)C(=O)NC(C)(C)C(=O)N[C@@H](CCCNC(=N)N)C(=O)N[C@@H](CCCNC(=N)N)C(=O)N[C@@H](C)C(=O)N[C@@H](CCC(N)=O)C(=O)N[C@@H](CC(=O)O)C(=O)N[C@@H](Cc1ccccc1)C(=O)N[C@H](C(=O)N[C@@H](CCC(N)=O)C(=O)N[C@@H](Cc1c[nH]c2ccccc12)C(=O)N[C@@H](CC(C)C)C(=O)N[C@@H](CCSC)C(=O)N[C@@H](CC(N)=O)C(=O)N[C@H](C(N)=O)[C@@H](C)O)C(C)C
B2: Peptide 85 (Table 10) (peptide)
peptide: H[Aib]QGTFTSDK([Ahx-Palmitoyl])SKYLD[Aib]RRAQDFVQWLMNT-NH2
modifications: N-terminus assumed
SMILES: CCCCCCCCCCCCCCCC(=O)NCCCCCC(=O)NCCCC[C@H](NC(=O)[C@H](CC(=O)O)NC(=O)[C@H](CO)NC(=O)[C@@H](NC(=O)[C@H](Cc1ccccc1)NC(=O)[C@@H](NC(=O)CNC(=O)[C@H](CCC(N)=O)NC(=O)C(C)(C)NC(=O)[C@@H](N)Cc1c[nH]cn1)[C@@H](C)O)[C@@H](C)O)C(=O)N[C@@H](CO)C(=O)N[C@@H](CCCCN)C(=O)N[C@@H](Cc1ccc(O)cc1)C(=O)N[C@@H](CC(C)C)C(=O)N[C@@H](CC(=O)O)C(=O)NC(C)(C)C(=O)N[C@@H](CCCNC(=N)N)C(=O)N[C@@H](CCCNC(=N)N)C(=O)N[C@@H](C)C(=O)N[C@@H](CCC(N)=O)C(=O)N[C@@H](CC(=O)O)C(=O)N[C@@H](Cc1ccccc1)C(=O)N[C@H](C(=O)N[C@@H](CCC(N)=O)C(=O)N[C@@H](Cc1c[nH]c2ccccc12)C(=O)N[C@@H](CC(C)C)C(=O)N[C@@H](CCSC)C(=O)N[C@@H](CC(N)=O)C(=O)N[C@H](C(N)=O)[C@@H](C)O)C(C)C
B3: Peptide 86 (Table 10) (peptide)
peptide: H[Aib]QGTFTSDK([Leu-Leu-Palmitoyl])SKYLD[Aib]RRAQDFVQWLMNT-NH2
modifications: N-terminus assumed
SMILES: CCCCCCCCCCCCCCCC(=O)N[C@@H](CC(C)C)C(=O)N[C@@H](CC(C)C)C(=O)NCCCC[C@H](NC(=O)[C@H](CC(=O)O)NC(=O)[C@H](CO)NC(=O)[C@@H](NC(=O)[C@H](Cc1ccccc1)NC(=O)[C@@H](NC(=O)CNC(=O)[C@H](CCC(N)=O)NC(=O)C(C)(C)NC(=O)[C@@H](N)Cc1c[nH]cn1)[C@@H](C)O)[C@@H](C)O)C(=O)N[C@@H](CO)C(=O)N[C@@H](CCCCN)C(=O)N[C@@H](Cc1ccc(O)cc1)C(=O)N[C@@H](CC(C)C)C(=O)N[C@@H](CC(=O)O)C(=O)NC(C)(C)C(=O)N[C@@H](CCCNC(=N)N)C(=O)N[C@@H](CCCNC(=N)N)C(=O)N[C@@H](C)C(=O)N[C@@H](CCC(N)=O)C(=O)N[C@@H](CC(=O)O)C(=O)N[C@@H](Cc1ccccc1)C(=O)N[C@H](C(=O)N[C@@H](CCC(N)=O)C(=O)N[C@@H](Cc1c[nH]c2ccccc12)C(=O)N[C@@H](CC(C)C)C(=O)N[C@@H](CCSC)C(=O)N[C@@H](CC(N)=O)C(=O)N[C@H](C(N)=O)[C@@H](C)O)C(C)C

target: GLP-1 receptor (UniProt P43220 24-463, limits assumed); assay: cell-based or functional assay

Going from H[Aib]QGTFTSDK([Ala-Ala-Palmitoyl])SKYLD[Aib]RRAQDFVQWLMNT-NH2 [Peptide 82 (Table 10)] to H[Aib]QGTFTSDK([γGlu-γGlu-Palmitoyl])SKYLD[Aib]RRAQDFVQWLMNT-NH2 [Peptide 83 (Table 10)], the “EC50 at GLP-1 Receptor” value falls from 0.108 nM to 0.043 nM (2.5-fold).

B1 and B2 are within 1.5-fold of each other in “EC50 at GLP-1 Receptor” value: 0.004 nM for the first, 0.005 nM for the second.

B3 and H[Aib]QGTFTSDK([Pro-Pro-Palmitoyl])SKYLD[Aib]RRAQDFVQWLMNT-NH2 [Peptide 87 (Table 10)] are within 1.5-fold of each other in “EC50 at GLP-1 Receptor” value: 0.006 nM for the first, 0.009 nM for the second.

First: H[Aib]QGTFTSDK(Myristoyl)SKYLD[Aib]RRAQDFVC(PEG 40 kDa)WLMNT-NH2 [Peptide 77* (Table 10)]
Second: H[Aib]QGTFTSDK([γGlu-γGlu-Myristoyl])SKYLD[Aib]RRAQDFVC(PEG 40 kDa)WLMNT-NH2 [Peptide 78* (Table 10)]
The “EC50 at GLP-1 Receptor” value of the first is 14-fold higher: 1.46 nM for the first, 0.103 nM for the second.

Going from H[Aib]QGTFTSDK([Ala-Ala-Myristoyl])SKYLD[Aib]RRAQDFVC(PEG 40 kDa)WLMNT-NH2 [Peptide 81* (Table 10)] to H[Aib]QGTFTSDK([Ala-Ala-Palmitoyl])SKYLD[Aib]RRAQDFVC(PEG 40 kDa)WLMNT-NH2 [Peptide 79* (Table 10)], the “EC50 at GLP-1 Receptor” value falls from 0.271 nM to 0.055 nM (4.9-fold).

target: T1, glucagon receptor (human, UniProt P47871 26-477); assay: cell-based or functional assay
T1 sequence (P47871 26-477): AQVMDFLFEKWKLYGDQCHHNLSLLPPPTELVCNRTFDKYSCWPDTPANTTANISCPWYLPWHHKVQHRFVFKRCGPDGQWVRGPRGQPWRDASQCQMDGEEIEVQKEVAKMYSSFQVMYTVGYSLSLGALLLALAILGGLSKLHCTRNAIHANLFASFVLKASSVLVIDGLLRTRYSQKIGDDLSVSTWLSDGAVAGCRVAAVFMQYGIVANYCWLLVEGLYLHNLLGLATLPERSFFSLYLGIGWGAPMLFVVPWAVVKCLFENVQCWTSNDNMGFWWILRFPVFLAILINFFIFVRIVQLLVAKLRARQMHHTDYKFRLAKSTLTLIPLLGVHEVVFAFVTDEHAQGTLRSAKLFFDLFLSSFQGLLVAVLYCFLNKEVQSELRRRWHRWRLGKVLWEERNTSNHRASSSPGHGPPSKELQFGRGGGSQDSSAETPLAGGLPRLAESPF

Compared with H[Aib]QGTFTSDK(Palmitoyl)SKYLD[Aib]RRAQDFVQWLMNT-NH2 [Peptide 50 (Table 10)], H[Aib]QGTFTSDK([Ala-Ala-Palmitoyl])SKYLD[Aib]RRAQDFVQWLMNT-NH2 [Peptide 82 (Table 10)] is 24-fold lower in “EC50 at Glucagon Receptor” value: 0.572 nM for the first, 0.024 nM for the second.

Compared with B2, H[Aib]QGTFTSDK([Pro-Pro-Palmitoyl])SKYLD[Aib]RRAQDFVQWLMNT-NH2 [Peptide 87 (Table 10)] is 1.7-fold higher in “EC50 at Glucagon Receptor” value: 0.01 nM for the first, 0.017 nM for the second.

Compared with H[Aib]QGTFTSDK(Myristoyl)SKYLD[Aib]RRAQDFVC(PEG 40 kDa)WLMNT-NH2 [Peptide 77* (Table 10)], H[Aib]QGTFTSDK([γGlu-γGlu-Myristoyl])SKYLD[Aib]RRAQDFVC(PEG 40 kDa)WLMNT-NH2 [Peptide 78* (Table 10)] is 69-fold lower in “EC50 at Glucagon Receptor” value: 21.9 nM for the first, 0.319 nM for the second.

Compared with H[Aib]QGTFTSDK([Ala-Ala-Myristoyl])SKYLD[Aib]RRAQDFVC(PEG 40 kDa)WLMNT-NH2 [Peptide 81* (Table 10)], H[Aib]QGTFTSDK([Ala-Ala-Palmitoyl])SKYLD[Aib]RRAQDFVC(PEG 40 kDa)WLMNT-NH2 [Peptide 79* (Table 10)] is 5.9-fold lower in “EC50 at Glucagon Receptor” value: 0.597 nM for the first, 0.102 nM for the second.

target: T1, glucagon receptor; assay: cell-based or functional assay; remark: another data set of the same source

Going from HS[Orn](Ac)GTFTSDYSKYLDTRRAAEFVAWL[Nle]DE [Peptide J backbone, Orn(Ac) at position 3] to HSQGTFTSDYSKYLD[Aib]RRAADFVAWLMDE [Peptide K backbone, Q at position 3], the “% activity*” value rises from 7% to 15%.

First: HS[Dab](Ac)GTFTSDYSKYLD[Aib]RRAADFVAWLMDE [Peptide K backbone, Dab(Ac) at position 3]
Second: HSQGTFTSDYSKYLDTRRAAEFVAWL[Nle]DE [Peptide J backbone, Q at position 3]
The “% activity*” value of the first is higher: 86% for the first, 25% for the second.

First: HSC(Acm)GTFTSDYSKYLDTRRAAEFVAWL[Nle]DE [Peptide J backbone, C(Acm) at position 3]
Second: HS[Dab](Ac)GTFTSDYSKYLDTRRAAEFVAWL[Nle]DE [Peptide J backbone, Dab(Ac) at position 3]
The “% activity*” value of the first is higher: 33% for the first, 19% for the second.

First: HS[Dap](Carbamoyl)GTFTSDYSKYLDTRRAAEFVAWL[Nle]DE [Peptide J backbone, Dap(urea) at position 3]
Second: HS[Met(O)]GTFTSDYSKYLDTRRAAEFVAWL[Nle]DE [Peptide J backbone, M(O) at position 3]
The “% activity*” value of the first is higher: 13% for the first, 7% for the second.

Going from HS[Orn](Ac)GTFTSDYSKYLDTRRAAEFVAWL[Nle]DE [Peptide J backbone, Orn(Ac) at position 3] to HS[Dab](Ac)GTFTSDYSKYLD[Aib]RRAADFVAWLMDE [Peptide K backbone, Dab(Ac) at position 3], the “EC50 at Glucagon Receptor” value falls from 0.92 nM to 0.07 nM (13-fold).

Compared with HS[Dab](Ac)GTFTSDYSKYLDTRRAAEFVAWL[Nle]DE [Peptide J backbone, Dab(Ac) at position 3], HS[Dap](Carbamoyl)GTFTSDYSKYLDTRRAAEFVAWL[Nle]DE [Peptide J backbone, Dap(urea) at position 3] is 1.5-fold higher in “EC50 at Glucagon Receptor” value: 0.31 nM for the first, 0.48 nM for the second.

HS[Met(O)]GTFTSDYSKYLDTRRAAEFVAWL[Nle]DE [Peptide J backbone, M(O) at position 3] was tested, and the “EC50 at Glucagon Receptor” value was 0.91 nM.
